Tests used:
PANC1 = assay: Propidium iodide monolayer assay, PANC1; assay type: cell-based, human; settings: PANC1, four days
Description: (§1) Monolayer Assay Propidium Iodid (PI). Cells were harvested from exponential phase cultures, counted and depending on the cell line 3.000 to 20.000 cells were plated in 96-well flat-bottom microtiter plates After a 24 h recovery period to allow cells to resume exponential growth, 10 μl of culture medium (four control wells/plate) or culture medium with the test compound were added by a liquid handling robotic system and treatment continued for four days. Compounds were applied in half-log increments at 10 concentrations in duplicate. Three independent experiments were performed. Cells were then washed with 200 μl PBS to remove dead cells followed by addition of 200 μl of a solution containing 7 μg/ml propidium iodide (PI) and 0.1% (v/v) Triton X-100. After an incubation period of 1-2 h at room temperature, fluorescence (FU) was measured using the Cytofluor 4000 microplate reader (excitation λ=530 nm, emission λ=620 nm) to quantify the amount of attached viable cells. […]
(§2) CROMOC36—in vitro activity Human pancreatic carcinoma cell lines. […] Antitumor activity was assessed after four days of CROMOC36 treatment using a propidium iodide based monolayer proliferation assay. […]

[1] = test system: 80 different human tumor cell lines; assay: Monolayer SRB staining assay for 72 hours, 80 human tumor cell lines; assay type: cell-based; settings: 55/80 cell lines, SRB 72 hours
Description: Cells were harvested from exponential phase cultures, and depending on the cell line 10.000 to 30.000 cells were plated in 96-well flat-bottom microtiter plates. After a 24 h recovery period to allow cells to resume exponential growth, supernatant was discarded and 100 μl of culture medium (eight control wells/plate) or culture medium with the test compound were added by a liquid handling robotic system (Microlab® Starlet, Hamilton) and treatment continued for 72 hrs. Compounds were applied at 9 concentrations eight wells/concentration). At least three independent experiments were performed. For SRB staining, cells were fixed with SRB01 for 1h at 4° C. (final concentration of TCA=10%) washed with a plate washer (Hydroflex, Tecan©) for five times with H2O; and stained with 100 μl of SRB02 at room temperature for 10 min following 4 washes in SRB03 and finally 100 μl of developer solution SRB04 for 5 minutes with shaking. Optical density was assessed using a plate-reader (Sunrise, Tecan©) at 540 nm. […]
To analyze the cytostatic activity in different tumor cell lines, the in vitro activity of CROMOC36 was analyzed in 80 different human tumor cell lines representing the mayor tumor indications by the Monolayer Sulphorhodamine B (SRB) staining assay for 72 hours.

[2] = test system: DNA double strand breaks (Phospho-H2AX, Phospho-H3); assay: Immunohistochemistry of liver specimens after single IV treatment; assay type: in vivo, Male Sprague Dawley Rats; settings: samples after 13-15 days
Excerpt: FIG. 8: Immunohistochemistry (IHC) analysis paraffin embedded liver specimens of Male Sprague Dawley Rats after single IV treatment with CROMOC36. Samples were collected after 13-15 days and IHC was used to assess the Histone surrogate-markers for DNA double strand breaks Phospho-H2AX and Phospho-H3 for analyzing the persistence of DNA double stand breaks (DSBs) at very high CROMOC concentrations in tumors in comparison to the KI67marker.
As a proof of the nuclease activity in vivo an Immunohistochemistry (IHC) analysis of paraffin embedded liver specimens of Male Sprague Dawley Rats after single IV treatment with CROMOC36.

[3] = test system: lung cancer, ovarian cancer and neuroblastoma and colon cancer cells; assay: SRB assay for 96 hours, cancer cells; assay type: cell-based; settings: SRB 96 hours, various cancer cells; read-out: IC50 range
Description: Cells were harvested from exponential phase cultures, and depending on the cell line 10.000 to 30.000 cells were plated in 96-well flat-bottom microtiter plates. After a 24 h recovery period to allow cells to resume exponential growth, supernatant was discarded and 100 μl of culture medium (eight control wells/plate) or culture medium with the test compound were added by a liquid handling robotic system (Microlab® Starlet, Hamilton) and treatment continued for 72 hrs. Compounds were applied at 9 concentrations eight wells/concentration). At least three independent experiments were performed. For SRB staining, cells were fixed with SRB01 for 1h at 4° C. (final concentration of TCA=10%) washed with a plate washer (Hydroflex, Tecan©) for five times with H2O; and stained with 100 μl of SRB02 at room temperature for 10 min following 4 washes in SRB03 and finally 100 μl of developer solution SRB04 for 5 minutes with shaking. Optical density was assessed using a plate-reader (Sunrise, Tecan©) at 540 nm. Concentrations required for 50% inhibition of cell growth (IC50) were calculated by non-linear regression (log[conc. of inhibitor] versus response (% T/C)) using the analysis software GraphPad Prism®, Prism 5 for windows, version 5.01 (GraphPad Software Inc., CA). (SRB Buffers FIG. 25).

PAXF 546L = assay: Propidium iodide monolayer assay, PAXF 546L; assay type: cell-based, human; settings: four days
Description: as §1, §2

[4] = test system: HCT116 human colon carcinoma xenograft with null p53 (HCT116 p53−/−); assay: HCT116 p53-/- xenograft, single agent and combination with cisplatin or vincristine; assay type: in vivo, female athymic nude mice
Description: A study was conducted to evaluate the efficacy and tolerability of CROMOC36 against an HCT116 human colon carcinoma xenograft model with null p53 (HCT116 p53−/−) in female athymic nude mice. CROMOC36 was administered subcutaneously (s.c.) three times at intervals of two weeks (q14dx3) as a single agent or in combination with cisplatin (CDDP) at 4 mg/kg or vincristine (VCR) at 2 mg/kg which were both administered five times at intervals of one week (q7dx5). CROMOC36 was tested at 32 mg/kg or using a decreasing dosage of 32-16-16 mg/kg. CDDP and VCR were also administered as single agents to allow comparison of the efficacy of CROMOC36 with commonly used anticancer drugs. The dose and schedule of CDDP and VCR treatments remained the same when tested as single agents or in combination with CROMOC36. […] Efficacy was also evaluated by measuring the tumor growth delay (TGD) and the number of regression responses.

HEPG2 = assay: Monolayer assay, 96h treatment, HEPG2; assay type: cell-based, human; settings: HEPG2, 96h treatment
Description: Monolayer Assay Propidium Iodid (PI). Cells were harvested from exponential phase cultures, counted and depending on the cell line 3.000 to 20.000 cells were plated in 96-well flat-bottom microtiter plates After a 24 h recovery period to allow cells to resume exponential growth, 10 μl of culture medium (four control wells/plate) or culture medium with the test compound were added by a liquid handling robotic system and treatment continued for four days. Compounds were applied in half-log increments at 10 concentrations in duplicate. Three independent experiments were performed. Cells were then washed with 200 μl PBS to remove dead cells followed by addition of 200 μl of a solution containing 7 μg/ml propidium iodide (PI) and 0.1% (v/v) Triton X-100. After an incubation period of 1-2 h at room temperature, fluorescence (FU) was measured using the Cytofluor 4000 microplate reader (excitation λ=530 nm, emission λ=620 nm) to quantify the amount of attached viable cells. Concentrations required for 50% inhibition of cell growth (IC50) were calculated by non-linear regression (log[conc. of inhibitor]versus response (% T/C)) using the analysis software GraphPad Prism®, Prism 5 for windows, version 5.01 (GraphPad Software Inc., CA).
CROMOC36—in vitro activity Human hepatocellular carcinoma cell lines IC50 values of CROMOC36 and Sorafenib, 96h treatment. […]

B1: CROMOC36: single chain PvuII endonuclease fused at its C-terminus to DDM36, PEGylated final product used in the Examples (protein)
chain: MSHPDLNKLLELWPHIQEYQDLALKHGINDIFQDNGGKLLQVLLITGLTVLPGREGNDAVDNAGQEYELKSINIDLTKGFSTHHHMNPVIIAKYRQVPWIFAIYRGIAIEAIYRLEPKDLEFYYDKWERKWYSDGHKDINNPKIPVKYVMEHGTKIYGSGGSGGSSHPDLNKLLELWPHIQEYQDLALKHGINDIFQDNGGKLLQVLLITGLTVLPGREGNDAVDNAGQEYELKSINIDLTKGFSTHHHMNPVIIAKYRQVPWIFAIYRGIAIEAIYRLEPKDLEFYYDKWERKWYSDGHKDINNPKIPVKYVMEHGTKIYGNSGSGKKKKKGKGSGLGSGKKKDPLGSGLGSGKKKKKGKGSGLGSGKKKDPLGST
modifications: PEGylated; peptide, CROMOC36
B1 was tested, and the IC50 (PANC1) was about 10 nM, the IC50 [1] was at most 100 nM and the “DNA double strand breaks in liver (Phospho-H2AX, Phospho-H3 IHC)” value [2] was “DSBs are induced”. For the same molecule, the IC50 [3] was 0.5 to 19 nM, the IC50 (PAXF 546L) was 6.49 nM and the tumor growth inhibition ([4]; CROMOC36 32 mg/kg s.c. q14dx3, single agent) was 82.9%. For the same molecule, the partial regression response ([4]; CROMOC36 32-16-16 mg/kg) was “one”, the tumor-free survivor ([4]; CROMOC36 32-16-16 mg/kg) was “one” and the “tumor growth inhibition with respect to single-agent CROMOC36” value ([4]; CROMOC36 32-16-16 mg/kg in combination with CDDP or VCR) was “did not change significantly”. The “persistence of inhibitory effect” value ([4]; CROMOC36 32-16-16 mg/kg, single agent or in combination with CDDP or VCR, three weeks after the last treatment) was “persisted until day 50”, the tumor growth inhibition ([4]; CROMOC36 decreasing 32-16-16 mg/kg s.c. q14dx3, single agent) was 91.6% and the “% TGD (tumor growth delay)” value ([4]; endpoint tumor volume of 1000 mm^3, CROMOC36 as single agent or in combination) was over 117%. The “time to study endpoint (TTE)” value ([4]; endpoint tumor volume of 1000 mm^3, control Day 23, CROMOC36 as single agent or in combination) was over 50 days and the IC50 (HEPG2) was 13.7 nM.
